Data taken from patent US20240182548A1 (AstraZeneca / MedImmune, published 2024).

B1: 2096 (antibody, V domains shown)
VH: QVQLVQSGAEVKKPGASVKVSCKASGYTFGSFDINWVRQATGQGLEWMGRMNSNSGNTAYAQKFQGRVTMTRDTSTNTAYMELSSLRSEDTAMYYCARMRSGWPTHGRPDDFWGRGTLVTVSS
VL: QSVLTQAPSASGTPGQRVTISCSGSNSNIGSYTINWYQQLPGTAPKLLIYGNDQRTSGVPDRFSGSKFGTSASLAISGLQSEDENNYYCAVWDDSLNGLVFGGGTKLTVL
B2: 2094 (antibody, V domains shown)
VH: EVQLVESGGGVVRPGGSLRLSCAASGFIFDDYDMTWVRQAPGKGLEWVSGINWNGGSTGYADSVKGRFTISRDNAKNSLYLQMNSLRAEDTALYHCAVIMSPIPRYSGYDWAGDAFDIWGQGTMVTVSS
VL: SSELTQDPAVSVALGQTVRITCQGDSLRSYYASWYQQKPGQVPILVIYDKNNRPSGIPDRFSGSSSGNTASLTITGAQAEDEADYYCNSRDSSGNAVVFGGGTKLTVL

Target: SARS2 spike protein with C-terminal 19aa deletion, on S protein pseudotyped lentivirus (SARS-CoV-2, UniProt P0DTC2 13-1254)
Experiment: cell-based or functional assay

Binder | Pseudovirus neutralization IC50 [ng/mL]
B1 | 3.3
B2 | 3
